{
  "source": "patent US20210171947A1",
  "about": "(PAIRWISE PLANTS SERVICES, published 2021)",
  "target": "4xSH3lig::Cas12a (SEQ ID NO: 187)",
  "assay": "cell-based or functional assay",
  "data": [
    {"binder": "VirD2::SH3dom (SEQ ID NO: 186) (other) MPDRAQVIIRIVPGGGTKTLQQIINQLEYLSRKGRLELQRSARHLDIPLPPDQIHELARSWVQETGTYDESQPDEERQQELTTHIIVSFPAGTSQVAAYAASREWAAEMFGSGAGGGRYNYLTAFHIDRDHPHLHVVVNRRELLGHGWLKISRRHPQLNYDALRIKMAEISLRHGIALDASRRAERGITERPITYAQYRRLEREQARQIRFEDADLEQSSPQGDHPEFSQPFDTSPFEASAGGPEDMPRPNNRQNESQVHLQEPAGVSNEAGVLVRVALETERLAQPFVSETILADDIGSGSSRVAEGRVESANRTPDIPRAATEAATHTTHDRQRRAKRPHDDDGGPSGAKRVTLEGIAVGPQANAGEQDGSSGGSSGGSMSGSKKRRIKQDAEYVRALFDFNGNDEEDLPFKKGDILRIRDKPEEQWWNAEDSEGKRGMIPVPYVEKYSGSGGSSGGSSGPLVRQAGTSRPSPPTATTRASTATDSLSATAHLQQRRGVLSKRPREDDDGEPSERKRERDERSKDGRGGNRR", "values": [
      {"measurement": "increase of green shoots over the negative control, EF1α site", "value": "~3", "unit": "fold"},
      {"measurement": "increase of green shoots over the negative control, polyubiquitin site", "value": "~2", "unit": "fold"}
    ]}
  ]
}
